Test results from paper PMC11417767.

Biological target: FAIM2 (Fas-apoptotic inhibitory molecule 2) (UniProt Q8K097)
Assay: FAIM2 immunoprecipitation, αA-crystallin immunoblot
Conditions: reference: wild type; sites T148

## αA-crystallin (HSPB4/CRYAA) (from UniProt P02489) T148A
  binding against the reference: weaker
